Experimental data taken from patent US6689364B2, “Borrelia burgdorferi polypeptides and uses thereof” (Tufts University, priority 2000, dated 2004).
“Also recorded” adds a separate entry of the source.

B1: FTK-OspA (protein)
chain: KQNVSSLDEKNSVSVDLPGEMKVLVSKEKNKDGKYDLIATVDKLELKGTSDKNNGSGVLEGVKADKSKVKLTISDDLGQTTLEVFKEDGKTLVSKKVTSKDKSSTEEKFNEKGEVSEKIITRADGTRLEYTGIKSDGSGKAKEVLKGFTLEGKLTAEKTTLVVKEGTVTLSKNISKSGEVSVELNDTDSSAATKKTAAWNSGTSTLTITVNSKKTKDLVFTKENTITVQQYDSNGTKLEGSAVEITKLDEIKNALK

Legend:
[1] = tested on: HLA-DRB1*0401 restricted OspA-specific human T cell clones; assay: Cytokine production by T cell clones on stimulation with OspA; format: cell-based; details: for production of interferon gamma by T cell clones: FIG. 3A; for production of interleukin 13 by T cell clones: FIG. 3B
Experimental: (§1) Binding of OspA to HLA-DRB1*0401 is determined by measuring stimulation of T cells reactive with wildtype OspA. The stimulation of T cells is determined by measuring OspA-induced proliferation or cytokine production, including interferon gamma and interleukin 13 (see Examples, below).
(§2) Human T cells were cloned from the synovial fluid of an HLA DRB1*0401 homozygous patient based upon their ability to recognize the epitope OspA165-173 in the context of HLA-DRB1*0401. These clones were then tested for their ability to respond functionally to wild type versus FTK OspA by either proliferation or cytokine secretion.
(§3) Three different human DR4-restricted T cell clones from a patient with treatment-resistant Lyme arthritis were selected for their ability to respond to the wild type OSpA165-173 peptide. […] These T cells proliferate in response to stimulation with wildtype OspA, but not FTK-OspA.

N40 B. burgdorferi = assay: Mouse vaccination and B. burgdorferi challenge, protection against Lyme arthritis; format: in vivo, mice; details: trials A and B together; for mice protected from development of arthritis: 10 μg vaccine on days 0, 14, 28, day 35 challenge with 5×10^3 or 1×10^4 N40 B. burgdorferi in footpad, day 56 histology; for mice protected from development of arthritis (protected/total): same protocol, number of mice
Excerpt: The mouse vaccination protocol was based upon experiments in the literature which initially identified OspA as having potential as a vaccine. The vaccine has not been tested in vivo with tick challenge due to the technically difficult nature of the animal handling for such experiments. However, the artificial system used here has been utilized by others in the past and reflects accurately on the protective ability of the modified vaccine. (Fikrig et al, 1997 Immunity 6:531-539; Bockenstedt et al,1993 J Immunol 151:900-906, Fikrig et al, 1992 PNAS 89:5418-5421)
The correlation between infection and arthritis, measured for the first vaccination trial, was 1:1.
(§4) On day 35, the vaccinated mice were exposed to 5×10^3 or 1×10^4 passage 0 N40 B. burgdorferi in the right footpad. On day 56, mice were sacrificed and the following tissue samples were taken for further analysis: ankles (for histology to analyze arthritis), blood and bladder (for culture to detect B. burgdorferi), serum (for serology to determine the antibody response), and ears (for PCR to detect B. burgdorferi).

monoclonal antibody LA-2 = assay: In vitro binding of protective anti-OspA monoclonal antibody LA-2; details: in vitro assay, FIG. 6
Excerpt: Monoclonal antibody LA-2, which provides passive immunity against B. burgdorferi in mice, binds an epitope in OspA.

[2] = tested on: HLA-DRB1*0401 restricted OspA-specific human T cell clones; assay: Proliferation response of human DR4-restricted T cell clones to OspA; format: cell-based; details: for proliferation response of T cell clones: three human DR4-restricted T cell clones from a patient with treatment-resistant Lyme arthritis, FIG. 2
Experimental: as §1, §2, §3

OspA = assay: Serum OspA-specific IgG in immunized mice; format: in vivo; details: for serum OspA-specific IgG pre-infection: FIG. 7A; for serum OspA-specific IgG post-infection: FIG. 7B
Excerpt: as §4

Row | Molecule | production of interferon gamma by T cell clones [1] | production of interleukin 13 by T cell clones [1] | mice protected from development of arthritis (N40 B. burgdorferi) | mice protected from development of arthritis (protected/total) (N40 B. burgdorferi) | binding of monoclonal antibody LA-2 (monoclonal antibody LA-2) | proliferation response of T cell clones [2] | serum OspA-specific IgG pre-infection (OspA) | serum OspA-specific IgG post-infection (OspA) | ability to stimulate OspA-specific T cell clones (proliferation or cytokine secretion) ([2]; clones from synovial fluid of an HLA DRB1*0401 homozygous patient)
1 | wildtype OspA: recombinant wildtype B. burgdorferi outer surface protein A [reference compound] | induces production | induces production | 75% | 12/16 | binds; also recorded: equivalently | proliferate | similar | similar | 
2 | B1 | not | not | 87.5% | 14/16 | binds; also recorded: equivalently | not | similar | similar | significantly decreased
